Laboratory results published in patent US20070224188A1.

Each substance was assayed against biotin-labeled soluble FcRn (assay: FcRn ELISA pH 6.0).

anti-CD20 antibody, IgG1 Fc region, wild type (a, z), sequence (heavy, part): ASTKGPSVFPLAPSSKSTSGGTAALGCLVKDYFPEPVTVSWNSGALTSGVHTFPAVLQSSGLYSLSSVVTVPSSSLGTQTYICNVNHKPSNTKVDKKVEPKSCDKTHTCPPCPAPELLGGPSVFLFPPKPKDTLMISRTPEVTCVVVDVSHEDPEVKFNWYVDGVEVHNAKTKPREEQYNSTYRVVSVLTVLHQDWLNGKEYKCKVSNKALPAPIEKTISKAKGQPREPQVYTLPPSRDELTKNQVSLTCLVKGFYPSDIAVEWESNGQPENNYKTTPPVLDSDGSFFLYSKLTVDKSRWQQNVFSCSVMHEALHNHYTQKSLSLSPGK

Substance	FcRn pH6.0 (% of wild type)	FcRn6.0 (% of wild type)
anti-CD20 IgG1 E430W (antibody)	11	
anti-CD20 IgG1 332E376I (antibody)		102
anti-CD20 IgG1 Q311M (antibody)	387	
anti-CD20 IgG1 D265H (antibody)	79	
anti-CD20 IgG1 E382H (antibody)	135	
anti-CD20 IgG1 E382V (antibody)	173	
anti-CD20 IgG1 S254Y (antibody)	0	
anti-CD20 IgG1 257I434H (antibody)		472
anti-CD20 IgG1 Y373D (antibody)	74	
anti-CD20 IgG1 P343Q (antibody)	442	
anti-CD20 IgG1 G341H (antibody)	65	
anti-CD20 IgG1 Q438G (antibody)	98	
anti-CD20 IgG1 P343M (antibody)	83	
anti-CD20 IgG1 E283M (antibody)	95	
anti-CD20 IgG1 I332Y (antibody)	93	
anti-CD20 IgG1 S254L (antibody)	74	
anti-CD20 IgG1 D376H (antibody)	81	
anti-CD20 IgG1 T307M (antibody)	302	
anti-CD20 IgG1 S254A (antibody)	7	
anti-CD20 IgG1 P247M (antibody)	18	
anti-CD20 IgG1 314Y440Y (antibody)		78
anti-CD20 IgG1 E283G (antibody)	137	

Substance	FcRn pH6.0 (% of wild type)	FcRn6.0 (% of wild type)
anti-CD20 IgG1 Y373M (antibody)	53	
anti-CD20 IgG1 P257I (antibody)	1020	
anti-CD20 IgG1 E269N (antibody)	92	
anti-CD20 IgG1 V279L (antibody)	78	
anti-CD20 IgG1 E380D (antibody)	73	
anti-CD20 IgG1 E293S (antibody)	101	
anti-CD20 IgG1 272R279L (antibody)		156
anti-CD20 IgG1 S254V (antibody)	31	
anti-CD20 IgG1 272R286F (antibody)		338
anti-CD20 IgG1 S440Q (antibody)	81	
anti-CD20 IgG1 P343E (antibody)	345	
anti-CD20 IgG1 L235R (antibody)	93	
anti-CD20 IgG1 330R332D (antibody)		88
anti-CD20 IgG1 Q311I (antibody)	437	
anti-CD20 IgG1 G341Q (antibody)	72	
anti-CD20 IgG1 I332A (antibody)	96	
anti-CD20 IgG1 S254R (antibody)	14	
anti-CD20 IgG1 I332R (antibody)	114	
anti-CD20 IgG1 P247N (antibody)	41	
anti-CD20 IgG1 D249N (antibody)	112	
anti-CD20 IgG1 N434F (antibody)	1010	
anti-CD20 IgG1 P238W (antibody)	87	

Substance	FcRn pH6.0 (% of wild type)	FcRn6.0 (% of wild type)
anti-CD20 IgG1 E382M (antibody)	135	
anti-CD20 IgG1 P238G (antibody)	66	
anti-CD20 IgG1 A339H (antibody)	107	
anti-CD20 IgG1 G341K (antibody)	67	
anti-CD20 IgG1 L251W (antibody)	0	
anti-CD20 IgG1 Y373T (antibody)	82	
anti-CD20 IgG1 D249M (antibody)	50	
anti-CD20 IgG1 G341N (antibody)	53	
anti-CD20 IgG1 L314I (antibody)	86	
anti-CD20 IgG1 E283W (antibody)	117	
anti-CD20 IgG1 251F332E376I (antibody)		68
anti-CD20 IgG1 G341T (antibody)	68	
anti-CD20 IgG1 M252Y (antibody)	964	
anti-CD20 IgG1 D376Y (antibody)	53	
anti-CD20 IgG1 L432R (antibody)	38	
anti-CD20 IgG1 T250K (antibody)	96	
anti-CD20 IgG1 A339I (antibody)	80	
anti-CD20 antibody, IgG1 Fc region, wild type (a, z)	100	100
anti-CD20 IgG1 E283H (antibody)	206	
anti-CD20 IgG1 E430M (antibody)	195	

Results, then the substance that gave them:

FcRn pH6.0 (% of wild type)	FcRn6.0 (% of wild type)	Substance
131		anti-CD20 IgG1 G316K (antibody)
176		anti-CD20 IgG1 A431K (antibody)
192		anti-CD20 IgG1 E430H (antibody)
0		anti-CD20 IgG1 S254W (antibody)
107		anti-CD20 IgG1 P329Y (antibody)
115		anti-CD20 IgG1 P238L (antibody)
0		anti-CD20 IgG1 P247W (antibody)
135		anti-CD20 IgG1 D376G (antibody)
163		anti-CD20 IgG1 A378D (antibody)
171		anti-CD20 IgG1 E430N (antibody)
92		anti-CD20 IgG1 A339Y (antibody)
65		anti-CD20 IgG1 S426D (antibody)
137		anti-CD20 IgG1 E430T (antibody)
107		anti-CD20 IgG1 D265K (antibody)
68		anti-CD20 IgG1 T256Y (antibody)
1		anti-CD20 IgG1 D376W (antibody)
71		anti-CD20 IgG1 S440T (antibody)
60		anti-CD20 IgG1 D280T (antibody)
88		anti-CD20 IgG1 S440R (antibody)
71		anti-CD20 IgG1 N315R (antibody)
131		anti-CD20 IgG1 E382I (antibody)

FcRn pH6.0 (% of wild type)	FcRn6.0 (% of wild type)	Substance
165		anti-CD20 IgG1 E382R (antibody)
67		anti-CD20 IgG1 A339G (antibody)
124		anti-CD20 IgG1 T260S (antibody)
87		anti-CD20 IgG1 S440F (antibody)
72		anti-CD20 IgG1 T256I (antibody)
91		anti-CD20 IgG1 G237N (antibody)
76		anti-CD20 IgG1 G236Y (antibody)
75		anti-CD20 IgG1 Y373W (antibody)
15		anti-CD20 IgG1 K248A (antibody)
168		anti-CD20 IgG1 E283F (antibody)
126		anti-CD20 IgG1 S440L (antibody)
41		anti-CD20 IgG1 D249Y (antibody)
89		anti-CD20 IgG1 P343F (antibody)
110		anti-CD20 IgG1 E283D (antibody)
139		anti-CD20 IgG1 V279Y (antibody)
27		anti-CD20 IgG1 R255N (antibody)
	383	anti-CD20 IgG1 258D272R (antibody)
14		anti-CD20 IgG1 Q311R (antibody)
546		anti-CD20 IgG1 D312P (antibody)
184		anti-CD20 IgG1 P257S (antibody)
102		anti-CD20 IgG1 L235A (antibody)

FcRn pH6.0 (% of wild type)	FcRn6.0 (% of wild type)	Substance
129		anti-CD20 IgG1 D376M (antibody)
81		anti-CD20 IgG1 P247S (antibody)
81		anti-CD20 IgG1 D270M (antibody)
183		anti-CD20 IgG1 E430S (antibody)
94		anti-CD20 IgG1 P238I (antibody)
129		anti-CD20 IgG1 I332H (antibody)
	86	anti-CD20 IgG1 256P314Y332E440Y (antibody)
	409	anti-CD20 IgG1 257I311I (antibody)
867		anti-CD20 IgG1 P257N (antibody)
117		anti-CD20 IgG1 S426L (antibody)
	522	anti-CD20 IgG1 258D311I (antibody)
119		anti-CD20 IgG1 E283N (antibody)
56		anti-CD20 IgG1 G237R (antibody)
73		anti-CD20 IgG1 S440E (antibody)
54		anti-CD20 IgG1 G341L (antibody)
	78	anti-CD20 IgG1 247L332E (antibody)
78		anti-CD20 IgG1 G341R (antibody)
94		anti-CD20 IgG1 Q311Y (antibody)
54		anti-CD20 IgG1 G341Y (antibody)
68		anti-CD20 IgG1 H268D (antibody)
